From patent publication US20250064890A1, “PROTEIN COMPOSITIONS FOR THE TREATMENT OF INFLAMMATORY DISEASES” (Unichem Laboratories Limited, priority 2021, published 2025)

Key:
[1] = tested on: oral (buccal) mucosa cells (TR146); experiment: Annexin positive cell population against radiation damage; format: cell-based, human; conditions: for % Apoptotic cells: Annexin positive
Experimental: Oral buccal mucosal cells (TR146) were incubated overnight in 5% CO2 incubator at 37° C. for 24 h. […] After 24 h of treatment, cells were exposed to damage (5-FU 5 mM) for 1.25 h for chemotherapy induced inflammation and exposed to gamma radiation (3.5 kGy) using Cobalt 60 for radiation induced inflammation. After the exposure, the anti-apoptotic effect of SEQ ID NO 2 was determined by restoration of mitochondrial membrane depolarization by JC-1 staining and reduction in apoptotic cell populations (Annexin positive and subG0/G1 cells in cell cycle analysis).
To determine the reduction in apoptotic cell populations using annexin-v staining cells were gently harvested into pre-labeled sterile centrifuge tubes and centrifuged at 300×g for 5-7 min. Supernatant were discarded and the pellet was resuspended in 200 μl of fresh culture medium. 100 μl of cell suspension was transferred into pre-labeled sterile centrifuge tubes. 100 μl of Annexin-V reagent was added to each tube and incubated for 30 min at RT in dark. Cells stained for Annexin-V were then transferred into 96-well plates and acquired on flow cytometer (Guava technologies). Percentage of Annexin-V positive cells was calculated as follows:
={[% Annexin positive cells in 5-FU or radiation alone]−[% Annexin positive cells in (TI+5-FU) or (TI+radiation)]/% Annexin positive cells in 5-FU or radiation alone}*100

TNF-α [2] = experiment: TNF-α in jugular mucosa (ELISA), 5-FU induced OM in hamsters; format: in vivo, golden Syrian hamsters; conditions: for TNF-α levels, % Decrease vs G2: G2 = OM + Vehicle
Experimental: To induce OM, animals were administered (except normal control) 5-Fluorouracil (5-FU) by intraperitoneal route at doses of 60 mg/kg & 40 mg/kg respectively on first two days. On Day 4, under anesthesia, with aim of enhancing OM, mechanical irritation of the oral mucosa were done using wire brush. Treatment was initiated from Day 4 to Day 12. For group 3 animals 100 μl of vehicle comprising of standard drug Dexamethasone at 0.1 mg was instilled in buccal cheek pouch. For group 4, 5 and 6 animals 100 μl of vehicle comprising of SEQ ID NO. 2 at 0.25 mg, 0.5 mg & 1 mg, respectively was instilled in buccal cheek pouch. At the end of treatment period, cheek pouch of the hamsters was exposed, Mucositis scoring was carried out and images were captured. The animals were then humanely sacrificed, cheek pouch/jugular mucosa were isolated and used for biomarker estimation and histopathological investigation by using ELISA method and Hematoxylin and Eosin (H&E) staining, respectively.
Further, for biomarker estimation jugular mucosa was dissected out, tissue weighed and stored in ice cold 1×PBS. 100 mg of tissue was taken and in 1 ml of 1×PBS buffer. Supernatant of homogenate was used for analysis of TNF-α and Interleukin-1β using ELISA method as per manufacturers instruction. The levels of TNF-α and Interleukin-1β are given in Table 13, FIG. 2 and Table 14, FIG. 3, respectively.

TNF-α [3] = experiment: Multiplex analysis, radiotherapy, TR146; format: cell-based, human
Experimental: (§1) Oral buccal mucosal cells (TR146) cells were incubated overnight at 37° C. in 5% CO2 incubator. […] The cells were then stimulated with 5-FU (10 mM) for another 24h for chemotherapy and with gamma radiation (3.5 kGy) using Cobalt 60 for radiotherapy. After 24 h, cell culture supernatants were collected from each well and stored at −20° C. till multiplex analysis. For NF-kB estimations, cell lysates were prepared. Levels of biomarkers were estimated using Magpix® multiplex machine. The cells treated with Amifostine (along with 5-FU or radiation) were considered as positive control (PC). Untreated cells (5-FU or radiation alone treated) were used as negative control (NC).
(§2) The percent modulation in each sample was determined as follows:
(§3) [{Concentration of biomarkers (pg/ml) in Control cells (5-FU or radiation alone treated)−Concentration of biomarkers (pg/ml) in SEQ ID NO: 2+5-FU or radiation treated cells)}/Concentration of biomarkers (pg/ml) in Control cells (5-FU or radiation alone treated)]*100

VEGF = experiment: Multiplex analysis, radiotherapy, TR146; format: cell-based, human
Experimental: as §1, §2, §3

IL-6 = experiment: Multiplex analysis, radiotherapy, TR146; format: cell-based, human
Experimental: as §1, §2, §3

MMP-8 = experiment: Multiplex analysis, radiotherapy, TR146; format: cell-based, human
Experimental: as §1, §2, §3

RAGE = experiment: Multiplex analysis, radiotherapy, TR146; format: cell-based, human
Experimental: as §1, §2, §3

MMP-3 = experiment: Multiplex analysis, radiotherapy, TR146; format: cell-based, human
Experimental: as §1, §2, §3

IL-1β = experiment: Multiplex analysis, radiotherapy, TR146; format: cell-based, human
Experimental: as §1, §2, §3

CCL-2 = experiment: Multiplex analysis, radiotherapy, TR146; format: cell-based, human
Experimental: as §1, §2, §3

[4] = 0.01 μg/ml + Radiation (3.5 kGy)
[5] = 0.1 μg/ml + Radiation (3.5 kGy)

B1: SEQ ID NO 2: recombinant lectin, variant of the S. rolfsii lectin amino acid sequence (reported as Rec-2 in WO 2010/095143) (protein)
chain: TYKITVRVYQTNPDAFFHPVEKTVWKYANGGTWTITDDQHVLTMGGSGTSGTLRFHADNGESFTATFGVHNYKRWCDIVTNLAADETGMVINQQYYSQKNREEARERQLSNYQVKNAKGRNFQIVYTEAEGNDLHANLIIG
With B1 the “% Decrease in Apoptotic cells (with respect to radiation control)” value (from here on “% Decrease in Apoptotic cells”) [1, 4] was −4.8%, the “% Apoptotic cells” value [1, 4] was 14.3% and the “% Decrease in Apoptotic cells” value [1, 5] was −7.3%. For the same molecule, the “% Apoptotic cells” value [1, 5] was 14.7%, the “% Decrease in Apoptotic cells” value ([1]; 1 μg/ml + Radiation (3.5 kGy)) was 56% and the “% Apoptotic cells” value ([1]; 1 μg/ml + Radiation (3.5 kGy)) was 6%. For the same molecule, the “% Decrease in Apoptotic cells” value ([1]; 10 μg/ml + Radiation (3.5 kGy)) was 62.2%, the “% Apoptotic cells” value ([1]; 10 μg/ml + Radiation (3.5 kGy)) was 5.1% and the “% Decrease in Apoptotic cells” value ([1]; 10 μg/ml + Radiation (3.5 kGy), listed as SEQ ID NO: 2) was 62.6%. For the same molecule, the “TNF-α levels, Mean” value (TNF-α [2]; G4, 0.25 mg/Animal) was 153.48 pg/mL, the “TNF-α levels, % Decrease vs G2” value (TNF-α [2]; G4, 0.25 mg/Animal) was −23.77% and the “TNF-α levels, Mean” value (TNF-α [2]; G5, 0.5 mg/Animal) was 155.76 pg/mL. For the same molecule, the “TNF-α levels, % Decrease vs G2” value (TNF-α [2]; G5, 0.5 mg/Animal) was −25.61%, the “TNF-α levels, Mean” value (TNF-α [2]; G6, 1 mg/Animal) was 79.37 pg/mL and the “TNF-α levels, % Decrease vs G2” value (TNF-α [2]; G6, 1 mg/Animal) was 36.00%. The “levels of TNF-α as compared to the untreated subjects” value (TNF-α [2]; hamsters suffering from OM, in words) was “reduction”, the “Percentage Inhibition TNF-α” value (TNF-α [3]; [4]) was 43.2% and the “Percentage Inhibition TNF-α” value (TNF-α [3]; [5]) was 45.2%. For the same molecule, the “Percentage Inhibition TNF-α” value (TNF-α [3]; 1 μg/ml + Radiation (3.5 kGy)) was 39.6%, the “Percentage Inhibition TNF-α” value (TNF-α [3]; 10 μg/ml + Radiation (3.5 kGy)) was 47.1% and the “Percentage Inhibition TNF-α” value (TNF-α [3]; 25 μg/ml + Radiation (3.5 kGy)) was 41%. For the same molecule, the “TNF-α against radiation induced levels” value (TNF-α [3]; radiation, in words) was “downregulation”, the “Percentage Inhibition VGEF” value (VEGF; [4]) was 0.9% and the “Percentage Inhibition VGEF” value (VEGF; [5]) was −8.1%. For the same molecule, the “Percentage Inhibition VGEF” value (VEGF; 1 μg/ml + Radiation (3.5 kGy)) was 8.4%, the “Percentage Inhibition VGEF” value (VEGF; 10 μg/ml + Radiation (3.5 kGy)) was 23.3% and the “Percentage Inhibition VGEF” value (VEGF; 25 μg/ml + Radiation (3.5 kGy)) was 29.7%. The “VEGF against radiation induced levels” value (VEGF; radiation, in words) was “downregulation”, the “Percentage Inhibition IL-6” value (IL-6; [4]) was −0.2% and the “Percentage Inhibition IL-6” value (IL-6; [5]) was 3.1%. The “Percentage Inhibition IL-6” value (IL-6; 1 μg/ml + Radiation (3.5 kGy)) was 3.8%, the “Percentage Inhibition IL-6” value (IL-6; 10 μg/ml + Radiation (3.5 kGy)) was 7.7% and the “Percentage Inhibition IL-6” value (IL-6; 25 μg/ml + Radiation (3.5 kGy)) was 5.2%. For the same molecule, the “Percentage Inhibition MMP-8” value (MMP-8; [4]) was 1.8%, the “Percentage Inhibition MMP-8” value (MMP-8; [5]) was 13.9% and the “Percentage Inhibition MMP-8” value (MMP-8; 1 μg/ml + Radiation (3.5 kGy)) was 11%. For the same molecule, the “Percentage Inhibition MMP-8” value (MMP-8; 10 μg/ml + Radiation (3.5 kGy)) was 8.5%, the “Percentage Inhibition MMP-8” value (MMP-8; 25 μg/ml + Radiation (3.5 kGy)) was 7.6% and the “MMP-8 against radiation induced levels” value (MMP-8; radiation, in words) was “downregulation”. The “Percentage Inhibition RAGE” value (RAGE; [4]) was 38.8%, the “Percentage Inhibition RAGE” value (RAGE; [5]) was 42.6% and the “Percentage Inhibition RAGE” value (RAGE; 1 μg/ml + Radiation (3.5 kGy)) was 47.6%. The “Percentage Inhibition RAGE” value (RAGE; 10 μg/ml + Radiation (3.5 kGy)) was 53.5%, the “Percentage Inhibition RAGE” value (RAGE; 25 μg/ml + Radiation (3.5 kGy)) was 39.1% and the “RAGE against radiation induced levels” value (RAGE; radiation, in words) was “downregulation”. For the same molecule, the “Percentage Inhibition MMP-3” value (MMP-3; [4]) was 42.8%, the “Percentage Inhibition MMP-3” value (MMP-3; [5]) was 51.9% and the “Percentage Inhibition MMP-3” value (MMP-3; 1 μg/ml + Radiation (3.5 kGy)) was 47.4%. For the same molecule, the “Percentage Inhibition MMP-3” value (MMP-3; 10 μg/ml + Radiation (3.5 kGy)) was 47.4%, the “Percentage Inhibition MMP-3” value (MMP-3; 25 μg/ml + Radiation (3.5 kGy)) was 28.8% and the “MMP-3 against radiation induced levels” value (MMP-3; radiation, in words) was “downregulation”. For the same molecule, the “Percentage Inhibition IL-1β” value (IL-1β; [4]) was −17.3%, the “Percentage Inhibition IL-1β” value (IL-1β; [5]) was −15.1% and the “Percentage Inhibition IL-1β” value (IL-1β; 1 μg/ml + Radiation (3.5 kGy)) was −11.5%. The “Percentage Inhibition IL-1β” value (IL-1β; 10 μg/ml + Radiation (3.5 kGy)) was −44.8%, the “Percentage Inhibition IL-1β” value (IL-1β; 25 μg/ml + Radiation (3.5 kGy)) was −97.1% and the “Percentage Inhibition CCL-2” value (CCL-2; [4]) was 0.1%. For the same molecule, the “Percentage Inhibition CCL-2” value (CCL-2; [5]) was 23.1%, the “Percentage Inhibition CCL-2” value (CCL-2; 1 μg/ml + Radiation (3.5 kGy)) was 23.1% and the “Percentage Inhibition CCL-2” value (CCL-2; 10 μg/ml + Radiation (3.5 kGy)) was 23.1%. For the same molecule, the “Percentage Inhibition CCL-2” value (CCL-2; 25 μg/ml + Radiation (3.5 kGy)) was 0% and the “CCL-2 against radiation induced levels” value (CCL-2; radiation, in words) was “downregulation”.
